From US20240141072A1 (published 2024) come the findings set out here.

Test [1] concerns the target T1, human DLL3 on DLL3-expressing tumor cell lines (human, UniProt Q9NYJ7 27-618).
T1 sequence: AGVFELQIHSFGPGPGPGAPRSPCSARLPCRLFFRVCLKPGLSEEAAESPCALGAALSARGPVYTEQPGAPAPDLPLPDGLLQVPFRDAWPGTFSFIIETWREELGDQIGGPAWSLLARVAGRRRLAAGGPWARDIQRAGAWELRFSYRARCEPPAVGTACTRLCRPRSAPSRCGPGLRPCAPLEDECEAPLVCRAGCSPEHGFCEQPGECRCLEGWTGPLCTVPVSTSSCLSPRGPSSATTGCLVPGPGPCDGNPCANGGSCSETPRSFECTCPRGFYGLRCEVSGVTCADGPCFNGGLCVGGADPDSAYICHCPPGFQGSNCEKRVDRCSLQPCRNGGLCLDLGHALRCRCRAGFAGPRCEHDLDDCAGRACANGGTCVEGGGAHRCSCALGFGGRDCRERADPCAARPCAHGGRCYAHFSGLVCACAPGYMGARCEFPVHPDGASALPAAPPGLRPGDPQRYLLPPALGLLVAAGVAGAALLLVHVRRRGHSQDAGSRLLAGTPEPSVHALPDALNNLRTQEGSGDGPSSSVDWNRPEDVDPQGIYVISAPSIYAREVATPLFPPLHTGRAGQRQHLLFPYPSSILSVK
Nature of the test: cell-based or functional assay.

Test [2] concerns the target T2, biotinylated human DLL3 protein expressed as a human IgG1 fusion protein (human, UniProt Q9NYJ7 27-492, limits assumed, biotinylated).
T2 sequence: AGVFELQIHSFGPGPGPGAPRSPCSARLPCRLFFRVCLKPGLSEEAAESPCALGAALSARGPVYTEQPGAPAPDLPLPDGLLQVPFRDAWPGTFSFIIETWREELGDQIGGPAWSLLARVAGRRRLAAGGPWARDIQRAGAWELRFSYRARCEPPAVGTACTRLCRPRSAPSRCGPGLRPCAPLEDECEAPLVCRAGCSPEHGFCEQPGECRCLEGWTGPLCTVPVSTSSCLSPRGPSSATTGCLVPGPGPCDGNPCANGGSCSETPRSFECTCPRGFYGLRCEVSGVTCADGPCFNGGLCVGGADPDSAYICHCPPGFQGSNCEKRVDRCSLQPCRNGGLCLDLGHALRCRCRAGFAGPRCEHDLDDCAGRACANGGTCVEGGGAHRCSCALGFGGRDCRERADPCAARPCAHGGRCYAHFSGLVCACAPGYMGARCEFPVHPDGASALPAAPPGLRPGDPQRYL
Briefly: Octet BLI, single 50 nM. An outline of the steps: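 Analyte: trispecific anti-DLL3 proteins in conditioned medium, concentration known; ligand: captured DLL3 fusion; output: binding affinity.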

In a further test the target is T3, cynomolgus DLL3 (cynomolgus, UniProt A0A2K5WSR1 27-490).
T3 construct: also called cyDLL3
T3 sequence: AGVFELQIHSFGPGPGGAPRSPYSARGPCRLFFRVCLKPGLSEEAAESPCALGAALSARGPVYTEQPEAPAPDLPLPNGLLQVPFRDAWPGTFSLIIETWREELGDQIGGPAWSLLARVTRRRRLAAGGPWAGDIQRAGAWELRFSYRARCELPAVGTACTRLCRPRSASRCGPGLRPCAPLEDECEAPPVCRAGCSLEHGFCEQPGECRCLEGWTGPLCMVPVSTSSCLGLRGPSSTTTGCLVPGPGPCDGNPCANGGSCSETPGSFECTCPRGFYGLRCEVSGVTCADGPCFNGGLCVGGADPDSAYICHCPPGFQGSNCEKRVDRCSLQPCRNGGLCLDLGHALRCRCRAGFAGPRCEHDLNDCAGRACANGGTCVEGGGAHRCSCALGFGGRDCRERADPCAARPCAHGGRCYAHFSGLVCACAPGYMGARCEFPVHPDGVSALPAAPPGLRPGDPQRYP
Briefly: Octet BLI, single 60 nM.

Test [3] deals with T2, biotinylated human DLL3 protein …. Nature of the test: Octet BLI, 60/20/6.67/2.22 nM. On the procedure: Using the conditioned medium with known concentrations of the anti-DLL3 trispecific proteins, the binding affinities of the anti-DLL3 trispecific proteins toward human DLL3 protein were measured using a method where biotinylated version of human DLL3 protein were expressed as a human IgG1 fusion protein, and the binding affinity measurement was carried out in an Octet instrument with streptavidin tips.

Substitutions are numbered along the chain they refer to.

B1: 1C03 anti-DLL3 trispecific protein (other)
chain: EVQLVESGGGLVQPGGSLTLSCVASGSTSSINAMAWYRRAPGKQRELVAGISSDNSKVYADSVKGRFTISRDNAKNSVYLQMNSLRAEDTAVYYCYYFRTVGGSSMRYWGQGTLVTVSS
notes: not shown: linker 1808, anti-albumin sdAb, linker 1808, anti-CD3 fragment, His6 1819
B1: the “DMS-153 TDCC EC50” value in test [1] worked out at 0.096 nM. The Kd in test [2] was found to be 6.1 nM.

B2: 2E010 anti-DLL3 trispecific protein (other)
chain: B1 chain with N55G, R99H, G102S
notes: as for B1
As for B2, the “DMS-153 TDCC EC50” value in test [1] was 0.031 nM. This molecule returned a Kd in test [2] of 4 nM.

B3: 2E011 anti-DLL3 trispecific protein (other)
chain: B1 chain with M34I, A35G, N55G, K57S, T100R, G102S
notes: as for B1
As for B3, in test [1], the “DMS-153 TDCC EC50” value was determined as 0.19 nM. Moreover, binding in test [2] was put at a Kd of 2.4 nM.

B4: 2A04 anti-DLL3 trispecific protein (other)
chain: B1 chain with N55G, A60T, V101T, G102S
notes: as for B1
B4: in test [1], the “DMS-153 TDCC EC50” value was 0.081 nM. For the same molecule, the Kd in test [2] came to 5.6 nM.

B5: 2E01 anti-DLL3 trispecific protein (other)
chain: EVQLVESGGGLVQPGGSLTLSCVASGSTSSINAMGWYRRAPFKQGELPAGISPDGTKAYADSAKVRFTISRDNAKNSVYLQMNSLRAEDTAVYYCYYFHTVCGTSMGYWGQGTLVTVSS
notes: as for B1
On to B5, for which the “DMS-153 TDCC EC50” value in test [1] stood at 0.033 nM. For the same molecule, the Kd in test [2] was found to be 4.1 nM.

B6: 3A02 anti-DLL3 trispecific protein (other)
chain: EVQLVESGGGLVQPGGSLTLSCAASGSSVSFLSLAWYRQAPGKKRELVAGISADGSTAYIDSVKGRFTISRDNAKNSVYLQMNSLRAEDTAVYYCYAYRWRTRYTYWGQGTLVTVSS
notes: as for B1
In the case of B6, the Kd in test [2] was determined as 8.1 nM; in the test with cynomolgus DLL3, 9.5 nM; in test [3] it was 7.8 nM.

B7: 4F04 anti-DLL3 trispecific protein (other)
chain: B6 chain with G26R, L34M, A53T, A58D, R101L
notes: as for B1
As to B7, in test [2], the equilibrium dissociation constant (Kd) was 9.8 nM.

B8: 4H05 anti-DLL3 trispecific protein (other)
chain: B6 chain with F31R, L34M, D54R, A58D, R101T, Y104S
notes: as for B1
Consider B8, for which the equilibrium dissociation constant (Kd) in test [2] came to 64 nM.

B9: 4G01 anti-DLL3 trispecific protein (other)
chain: B6 chain with S30R, L34M, A58V, R101P
notes: as for B1
Take B9: the affinity in test [2], expressed as Kd, was 3.6 nM.

B10: 3H06 anti-DLL3 trispecific protein (other)
chain: B6 chain with F31Q, L34M, A58D, I60F, R101T, Y104G
notes: as for B1
On to B10, for which, in test [1], the “DMS-153 TDCC EC50” value turned out to be 0.12 nM. Moreover, in test [2], the affinity, expressed as Kd, was 8 nM.

B11: 4E02 anti-DLL3 trispecific protein (other)
chain: B6 chain with S28Q, L34M, A58V, R101S
notes: as for B1
Take B11: the “DMS-153 TDCC EC50” value in test [1] amounted to 0.041 nM. Also, in test [2], the Kd came out at 3.8 nM.

B12: 3H011 anti-DLL3 trispecific protein (other)
chain: B6 chain with S30K, L34M, A58V, R101P
notes: as for B1
As for B12, in test [1], the “DMS-153 TDCC EC50” value is 0.12 nM. In test [2], this molecule showed a Kd of 2.7 nM.

B13: 4G08 anti-DLL3 trispecific protein (other)
chain: B6 chain with S30R, L34M, A53T, A58D, R101T, T105R
notes: as for B1
In test [2], B13 returned a Kd of 7.6 nM.

B14: 4F011 anti-DLL3 trispecific protein (other)
chain: B6 chain with S28K, L34M, T57K, A58D, R101T
notes: as for B1
The molecule B14 gave a dissociation constant (Kd) in test [2] of 8.2 nM.

B15: 4G09 anti-DLL3 trispecific protein (other)
chain: B6 chain with S28R, L34M, A53Y, A58D, R101T, Y104R
notes: as for B1
B15 gave a dissociation constant (Kd) in test [2] of 8.8 nM.

B16: 4H09 anti-DLL3 trispecific protein (other)
chain: B6 chain with F31K, L34M, A58D, I60R, R101T, T102Y
notes: as for B1
The molecule B16 yielded a dissociation constant (Kd) in test [2] of 16 nM.

B17: 4C06 anti-DLL3 trispecific protein (other)
chain: B6 chain with G26N, F31K, L34M, R101S
notes: as for B1
Take B17: the “DMS-153 TDCC EC50” value in test [1] amounted to 0.068 nM. The molecule further came in with an equilibrium dissociation constant (Kd) in test [2] of 6.8 nM.

B18: 4G03 anti-DLL3 trispecific protein (other)
chain: B6 chain with S30K, L34M, A58D, D61H, R101T, T102R
notes: as for B1
In the case of B18, the Kd in test [2] came to 20 nM.

B19: 4G07 anti-DLL3 trispecific protein (other)
chain: B6 chain with L34V, D54N, A58D, R101T, T102N
notes: as for B1
In turn, B19 registered a Kd in test [2] of 18 nM.

B20: 4H04 anti-DLL3 trispecific protein (other)
chain: B6 chain with S30K, L34M, I51V, A58D, R99E, R101T
notes: as for B1
On to B20, for which the “DMS-153 TDCC EC50” value in test [1] came out at 0.051 nM. The molecule further showed a dissociation constant (Kd) in test [2] of 6.1 nM.

B21: 4H03 anti-DLL3 trispecific protein (other)
chain: B6 chain with S28R, L34M, A58S, R101T
notes: as for B1
In test [2], B21 came in with a Kd of 13 nM.

B22: 4H01 anti-DLL3 trispecific protein (other)
chain: B6 chain with L34M, D54N, A58D, I60Y
notes: as for B1
B22 displayed a Kd in test [2] of 21 nM.

B23: 4B011 anti-DLL3 trispecific protein (other)
chain: B6 chain with S30T, L34M, A58V, R101T, Y104G
notes: as for B1
Regarding B23, the “DMS-153 TDCC EC50” value in test [1] turned out to be 0.048 nM. The same molecule yielded a Kd in test [2] of 3.9 nM.

B24: 4H08 anti-DLL3 trispecific protein (other)
chain: B6 chain with S30K, L34M, A58D, I60V, R101S
notes: as for B1
Consider B24, for which the Kd in test [2] stood at 8.9 nM.

B25: 4B07 anti-DLL3 trispecific protein (other)
chain: B6 chain with S30G, L34M, A58V, R101T
notes: as for B1
For B25, the “DMS-153 TDCC EC50” value in test [1] came to 0.067 nM. In test [2], this molecule registered a dissociation constant Kd of 4.3 nM.

B26: 4H07 anti-DLL3 trispecific protein (other)
chain: B6 chain with S27R, L34M, D54N, A58D, R101S
notes: as for B1
For the molecule B26, binding in test [2] was characterised by a dissociation constant (Kd) of 16 nM.

B27: 4F010 anti-DLL3 trispecific protein (other)
chain: B6 chain with L34M, A53I, A58D, D61K, R101T, T105R
notes: as for B1
As to B27, in test [2], binding was put at a Kd of 5.8 nM.

B28: 4G05 anti-DLL3 trispecific protein (other)
chain: B6 chain with F31I, L34M, A58I, R101H
notes: as for B1
In turn, B28 showed a dissociation constant (Kd) in test [2] of 9.7 nM.

B29: 4G010 anti-DLL3 trispecific protein (other)
chain: B6 chain with S27H, L34M, A58D, D61A, R101S
notes: as for B1
In test [2], B29 returned a Kd of 9.9 nM.

B30: 4F09 anti-DLL3 trispecific protein (other)
chain: B6 chain with S28R, L34M, A58D, D61E, R101T
notes: as for B1
Regarding B30, the Kd in test [2] amounted to 8.8 nM.

B31: 4G011 anti-DLL3 trispecific protein (other)
chain: B6 chain with S30R, L34M, A58D, D61G, R101S
notes: as for B1
Regarding B31, the dissociation constant (Kd) in test [2] was 7.5 nM.

B32: 4H06 anti-DLL3 trispecific protein (other)
chain: B6 chain with S27R, L34M, A58I, R101T
notes: as for B1
The molecule B32 returned a Kd in test [2] of 18 nM.

B33: 4G02 anti-DLL3 trispecific protein (other)
chain: B6 chain with S30K, L34M, A53R, A58D, R101T, Y104H
notes: as for B1
For B33, the dissociation constant Kd in test [2] came out at 15 nM.

B34: 4F08 anti-DLL3 trispecific protein (other)
chain: B6 chain with S28K, L34M
notes: as for B1
In test [2], B34 gave a dissociation constant Kd of 9 nM.

B35: 3D07 anti-DLL3 trispecific protein (other)
chain: B6 chain with S30R, L34M, A58D, R99S, R101T
notes: as for B1
In the case of B35, in test [1], the “DMS-153 TDCC EC50” value came to 0.061 nM. Further, the Kd in test [2] is 5.9 nM.
